In IntAct's records for PubMed 22232549:

B1: Extra-large guanine nucleotide-binding protein 2 (Arabidopsis thaliana (Mouse-ear cress)), C6KIE6 (parent)
chain: MAAVIRKLLPFPSPNPKRDNRESDDDDETSSGYRIEYSFASEYKGPLIANVPRALPVEVDQIPTALPVSFSSLRSGISYPVAPLVMTKDTKRPPDSGIEKKNGFVDSAAGSSVVLIGRDVVSGSSSSSSSKRLDVPEEVKSPADFRLSPSSPLSASAREEDHLDDDRVSDVGPRAVRFVEPFQSSECDESSYVSDGESIAATHRAERKGKRGSCYRCQLGNRFTEKEVCIVCDAKYCFNCVRRAMGAMPEGRKCQACIGYRIDESKRASLGKCSRMLKRHLTDSELRQVMNAEITCKANQLPSRLIIVNDKPLSEDELYTLQTCPNPPKKLKPGHYWYDKVAGYWGKIGEKPSQIISPNNSIGGYISEKVSNGDTEIYINGREITKPELTMLKWAGVQCEGKPHFWVDSDGSYREEGQKHPIGNIWSKKRAKIACAVFSLPVPPASSAVEPYDVPLYEQKMLNKLLLIGSEKGGATTIYKQARSLYNVSFSLEDRERIKFIIQTNLYTYLAMVLEAHERFEKEMSNDQSSGNVGDETSAKPGNSINPRLKHFSDWVLKEKEDGNLKIFPPSSRENAQTVADLWRVPAIQATYKRLRDTLPRNAVYFLERILEISRSEYDPSDMDILQAEGLSSMEGLSCVDFSFPSTSQEESLESDYQHDTDMKYQLIRLNPRSLGENWKLLEMFEDADLVIFCVSLTDYAENIEDGEGNIVNKMLATKQLFENMVTHPSLANKRFLLVLTKFDLLEEKIEEVPLRTCEWFEDFNPLISQNQTSRHNPPMAQRAFHYIGYKFKRLYDSILEPVNMRGRSFKPKLFVCQVSLESDTVDNALRYAREILKWHVEETSMFQEMSTTSIEASSSS
partner: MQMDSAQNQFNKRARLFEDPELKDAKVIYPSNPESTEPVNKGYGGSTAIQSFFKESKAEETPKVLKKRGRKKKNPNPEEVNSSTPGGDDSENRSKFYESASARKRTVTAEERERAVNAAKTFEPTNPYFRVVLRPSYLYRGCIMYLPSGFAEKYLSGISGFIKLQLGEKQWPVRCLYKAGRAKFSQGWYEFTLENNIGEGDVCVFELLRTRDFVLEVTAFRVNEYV

Variants of: B1
Conditions: with rem19_arath REM19, Q9XIB5

effect of a mutation on the interaction	Variant
disrupting interaction	T476N
